The text below walks through data of paper PMC10082071.

The target of test [1] is FXa-processed LOXL2, endogenous in human aortic smooth muscle cells treated with FXa (human (endogenous in HASMC)) (UniProt Q9Y4K0). As to the kind of experiment: proximity ligation; Duolink In Situ Red mouse/rabbit kit on HASMC on coverslips, fixed but not permeabilised; cells untreated, with FXa, or with FXa + rivaroxaban for 24 h; signal as mean gray value, % of average of controls.

The target of test [2] is Lysyl oxidase-like 2 (LOXL2), full-length, endogenous in human aortic smooth muscle cells (human (endogenous in HASMC)) (UniProt Q9Y4K0). The description is as above.

Consider “Type IV collagen, endogenous in the matrix of human aortic smooth muscle cells (complex)”, for which, in test [1], the decrease of PLA signal with FXa against controls was 50 % (decrease). Further, the increase of PLA signal with rivaroxaban (full-length LOXL2 accumulated) in test [2] is 80 % (increase).
